Experimental data published in publication doi:10.1101/2022.07.26.501514.

Biological target: T1, Atg18 wildtype (Autophagy-related protein 18, Saccharomyces cerevisiae) (Saccharomyces cerevisiae), P43601
T1 chain: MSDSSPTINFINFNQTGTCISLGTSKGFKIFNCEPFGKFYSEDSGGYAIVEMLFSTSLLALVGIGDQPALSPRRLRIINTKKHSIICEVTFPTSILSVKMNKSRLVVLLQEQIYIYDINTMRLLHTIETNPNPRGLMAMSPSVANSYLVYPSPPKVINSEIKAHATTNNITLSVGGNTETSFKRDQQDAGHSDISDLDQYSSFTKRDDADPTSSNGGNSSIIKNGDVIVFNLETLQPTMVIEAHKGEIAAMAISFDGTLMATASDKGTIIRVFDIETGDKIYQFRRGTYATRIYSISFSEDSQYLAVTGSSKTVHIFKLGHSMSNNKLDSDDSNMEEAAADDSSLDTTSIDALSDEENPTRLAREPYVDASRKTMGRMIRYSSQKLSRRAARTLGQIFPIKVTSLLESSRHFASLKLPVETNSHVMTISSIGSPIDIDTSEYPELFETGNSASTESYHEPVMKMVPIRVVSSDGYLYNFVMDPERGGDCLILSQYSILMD
Test: single-particle cryo-EM, 2D classification
Conditions: remark: other sources report otherwise

B1: Atg18 wildtype (Autophagy-related protein 18, Saccharomyces cerevisiae), P43601 1-500 (natural protein)
chain: MSDSSPTINFINFNQTGTCISLGTSKGFKIFNCEPFGKFYSEDSGGYAIVEMLFSTSLLALVGIGDQPALSPRRLRIINTKKHSIICEVTFPTSILSVKMNKSRLVVLLQEQIYIYDINTMRLLHTIETNPNPRGLMAMSPSVANSYLVYPSPPKVINSEIKAHATTNNITLSVGGNTETSFKRDQQDAGHSDISDLDQYSSFTKRDDADPTSSNGGNSSIIKNGDVIVFNLETLQPTMVIEAHKGEIAAMAISFDGTLMATASDKGTIIRVFDIETGDKIYQFRRGTYATRIYSISFSEDSQYLAVTGSSKTVHIFKLGHSMSNNKLDSDDSNMEEAAADDSSLDTTSIDALSDEENPTRLAREPYVDASRKTMGRMIRYSSQKLSRRAARTLGQIFPIKVTSLLESSRHFASLKLPVETNSHVMTISSIGSPIDIDTSEYPELFETGNSASTESYHEPVMKMVPIRVVSSDGYLYNFVMDPERGGDCLILSQYSILMD
B1 was tested. Which stoichiometry N did it give?
The stoichiometry N was 2.
